These results are taken from patent publication US20250263482A1.

In this assay the target is human CLDN18.2 expressed on cells (human). The experiment in a line: cell-based or functional assay.

B1: reference mAb (IMAB362, Ganymed) (antibody, INN chains, looked up, V domains shown)
VH: QVQLQQPGAELVRPGASVKLSCKASGYTFTSYWINWVKQRPGQGLEWIGNIYPSDSYTNYNQKFKDKATLTVDKSSSTAYMQLSSPTSEDSAVYYCTRSWRGNSFDYWGQGTTLTVSS
VL: DIVMTQSPSSLTVTAGEKVTMSCKSSQSLLNSGNQKNYLTWYQQKPGQPPKLLIYWASTRESGVPDRFTGSGSGTDFTLTISSVQAEDLAVYYCQNDYSYPFTFGSGTKLEIKR
Regarding B1, the ADCC on KATOIII CLDN18.2 cells, LDH: EC50 (nM), run A worked out at 0.12 nM; the ADCC on KATOIII CLDN18.2 cells, LDH: EC50 (nM), run B was determined as 0.22 nM; the ADCC on KATOIII CLDN18.2 cells, LDH: EC50 (nM), run C worked out at 0.27 nM; the ADCC on KATOIII CLDN18.2 cells, LDH: max (% cytotoxity), run A came to 27.9%. The ADCC on KATOIII CLDN18.2 cells, LDH: max (% cytotoxity), run B was 24.5%; the ADCC on KATOIII CLDN18.2 cells, LDH: max (% cytotoxity), run C stood at 24.5%; the ADCC on NCI-N87 CLDN18.2 cells, LDH: EC50 (nM), run A is 0.057 nM; the ADCC on NCI-N87 CLDN18.2 cells, LDH: EC50 (nM), run B turned out to be 0.082 nM. The same molecule registered an ADCC on NCI-N87 CLDN18.2 cells, LDH: EC50 (nM), run C of 0.1 nM; an ADCC on NCI-N87 CLDN18.2 cells, LDH: max (% cytotoxity), run A of 26.1%; an ADCC on NCI-N87 CLDN18.2 cells, LDH: max (% cytotoxity), run B of 22.1%; an ADCC on NCI-N87 CLDN18.2 cells, LDH: max (% cytotoxity), run C of 21.1%. The molecule also registered a CDC on CT26 CLDN18.2 cells, LDH: EC50 (nM), run A of 11.5 nM; a CDC on CT26 CLDN18.2 cells, LDH: EC50 (nM), run B of 10.7 nM; a CDC on CT26 CLDN18.2 cells, LDH: EC50 (nM), run C of 11.9 nM; a CDC on CT26 CLDN18.2 cells, LDH: max (% cytotoxity), run A of 72.5%. The CDC on CT26 CLDN18.2 cells, LDH: max (% cytotoxity), run B is 54.7%; the CDC on CT26 CLDN18.2 cells, LDH: max (% cytotoxity), run C amounted to 51.6%; the CDC on KATOIII CLDN18.2 cells, LDH: EC50 (nM), run A was 38.1 nM; the CDC on KATOIII CLDN18.2 cells, LDH: EC50 (nM), run B amounted to 22.7 nM. The same molecule gave a CDC on KATOIII CLDN18.2 cells, LDH: EC50 (nM), run C of 27.5 nM; a CDC on KATOIII CLDN18.2 cells, LDH: max (% cytotoxity), run A of 29.7%; a CDC on KATOIII CLDN18.2 cells, LDH: max (% cytotoxity), run B of 46%; a CDC on KATOIII CLDN18.2 cells, LDH: max (% cytotoxity), run C of 34.9%.
